T1: FLAG-CAL1 (Drosophila, UniProt Q9VEN2 1-979)
T1 construct: Chromosome Alignment 1 (CAL1), Drosophila; The results say the fusion is expressed under the endogenous CAL1 promoter, the methods say under the pCopia promoter; also called FLAG-tagged CAL1; Chromosome Alignment 1; source: Drosophila S2 cells stably expressing FLAG-CAL1, in chromatin-free extract / nuclear (chromatin) extract; not shown: FLAG, N-terminal, kept
T1 sequence (looked up): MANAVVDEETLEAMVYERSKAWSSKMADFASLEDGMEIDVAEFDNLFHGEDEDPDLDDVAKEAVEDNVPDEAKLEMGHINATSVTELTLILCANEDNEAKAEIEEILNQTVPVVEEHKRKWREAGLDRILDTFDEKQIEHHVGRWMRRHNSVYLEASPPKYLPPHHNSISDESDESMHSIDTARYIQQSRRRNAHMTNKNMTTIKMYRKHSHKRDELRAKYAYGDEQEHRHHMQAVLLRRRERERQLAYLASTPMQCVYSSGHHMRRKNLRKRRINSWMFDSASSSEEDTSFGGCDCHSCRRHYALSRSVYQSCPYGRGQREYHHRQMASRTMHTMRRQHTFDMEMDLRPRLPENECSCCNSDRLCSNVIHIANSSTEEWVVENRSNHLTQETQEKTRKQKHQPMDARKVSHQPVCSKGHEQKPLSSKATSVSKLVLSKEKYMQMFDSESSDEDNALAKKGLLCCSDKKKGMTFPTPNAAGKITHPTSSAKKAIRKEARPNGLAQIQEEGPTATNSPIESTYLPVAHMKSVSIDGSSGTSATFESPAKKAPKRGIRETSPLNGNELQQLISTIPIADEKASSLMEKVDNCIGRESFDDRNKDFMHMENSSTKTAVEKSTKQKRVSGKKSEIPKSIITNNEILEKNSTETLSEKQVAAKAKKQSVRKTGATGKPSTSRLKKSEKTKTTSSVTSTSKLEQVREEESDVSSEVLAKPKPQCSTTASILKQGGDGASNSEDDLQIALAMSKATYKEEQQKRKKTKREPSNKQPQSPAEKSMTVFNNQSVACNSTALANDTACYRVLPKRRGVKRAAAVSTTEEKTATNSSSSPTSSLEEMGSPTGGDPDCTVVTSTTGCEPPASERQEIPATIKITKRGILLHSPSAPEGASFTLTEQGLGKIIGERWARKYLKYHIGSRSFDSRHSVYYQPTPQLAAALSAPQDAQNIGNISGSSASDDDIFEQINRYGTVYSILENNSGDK

B1: CAL1 (natural protein, Drosophila (endogenous in S2 cells), UniProt Q9VEN2 1-979, looked up)
chain: T1 sequence (looked up)
notes: Chromosome Alignment 1 (CAL1), Drosophila, endogenous in untransfected S2 cells; runs approximately as a 150 KDa protein; also called Chromosome Alignment 1; source: endogenous, Drosophila S2 cells, in nuclear (chromatin) extract
B2: Modulo (natural protein, Drosophila (endogenous in S2 cells), UniProt P13469 1-542, looked up)
chain: MAQKKAVTVKGKKATNGEEKPLAKRVTKSTKVQEEETVVPQSPSKKSRKQPVKEVPQFSEEDESDVEEQNDEQPGDDSDFETEEAAGLIDDEAEEDEEYNSDDEEDDDDDELEPGEVSKSEGADEVDESDDDEEAPVEKPVSKKSEKANSEKSEENRGIPKVKVGKIPLGTPKNQIVFVTNLPNEYLHKDLVALFAKFGRLSALQRFTNLNGNKSVLIAFDTSTGAEAVLQAKPKALTLGDNVLSVSQPRNKEENNERTVVVGLIGPNITKDDLKTFFEKVAPVEAVTISSNRLMPRAFVRLASVDDIPKALKLHSTELFSRFITVRRISQESISRTSELTLVVENVGKHESYSSDALEKIFKKFGDVEEIDVVCSKAVLAFVTFKQSDAATKALAQLDGKTVNKFEWKLHRFERSTSGRAILVTNLTSDATEADLRKVFNDSGEIESIIMLGQKAVVKFKDDEGFCKSFLANESIVNNAPIFIEPNSLLKHRLLKKRLAIGQTRAPRKFQKDTKPNFGKKPFNKRPAQENGGKSFVKRARF
notes: Modulo, Drosophila nucleolar protein, endogenous in S2 cells; runs as a 75 KDa protein; also called nucleolar protein Modulo; Drosophila nucleolin homolog; source: endogenous, Drosophila S2 cells, in chromatin-free extract / nuclear (chromatin) extract

Assays:
[1] = target: B2; test: co-IP; anti-Modulo antibody coupled to Dynabead Protein-A, 2 h at 4°C, extracts of nuclei from S2 cells; mock IP without antibody; Western blot with anti-CAL1; settings: partners not purified
[2] = target: T1, FLAG-CAL1; test: co-IP; anti-FLAG M2 agarose, 2 h at 4°C, extracts of nuclei from S2 cells stably expressing FLAG-CAL1 and from untagged S2 cells; Western blot with anti-Modulo; quantified with Image J; settings: partners not purified

Binder | fold enrichment in the anti-Modulo IP over the mock IP [1] [fold] | fold enrichment in the FLAG-CAL1 IP over the IP from untagged S2 cells [2] [fold]
B1 | 8 | 
B2 |  | 5

— paper PMC3448598, “A Role for the CAL1-Partner Modulo in Centromere Integrity and Accurate Chromosome Segregation in Drosophila” (PLoS ONE, 2012)
